The target of this experiment is nLUC-TaPYL-1D (Triticum aestivum (bread wheat)). As to the kind of experiment: split reporter (BiFC, NanoBiT); LCI of cLUC-TaPP2C-7A with nLUC-TaPYL-1D in N. benthamiana leaves with a third protein co-expressed (TN1-GFP, tn1-GFP or GFP empty vector); relative luminescence, GFP EV combination set to 1.

TN1-GFP (natural protein): the percent decrease of LUC intensity of cLUC-TaPP2C-7A/nLUC-TaPYL-1D against the GFP EV samples was greater than 50%.

These data come from PMC9929037.
